Consider one molecule from article PMC11879086, “Identification and characterization of a human MORC2 DNA binding region that is required for gene silencing” (Nucleic Acids Research, 2024).

One series deals with T1, MORC2 aspartate mutant (Homo sapiens, UniProt Q9Y6X9 1-1032, K704D;R707D;K713D;K716D;K721D;K722D;R754D;R755D;K756D;R758D;K760D;R761D).
T1 sequence: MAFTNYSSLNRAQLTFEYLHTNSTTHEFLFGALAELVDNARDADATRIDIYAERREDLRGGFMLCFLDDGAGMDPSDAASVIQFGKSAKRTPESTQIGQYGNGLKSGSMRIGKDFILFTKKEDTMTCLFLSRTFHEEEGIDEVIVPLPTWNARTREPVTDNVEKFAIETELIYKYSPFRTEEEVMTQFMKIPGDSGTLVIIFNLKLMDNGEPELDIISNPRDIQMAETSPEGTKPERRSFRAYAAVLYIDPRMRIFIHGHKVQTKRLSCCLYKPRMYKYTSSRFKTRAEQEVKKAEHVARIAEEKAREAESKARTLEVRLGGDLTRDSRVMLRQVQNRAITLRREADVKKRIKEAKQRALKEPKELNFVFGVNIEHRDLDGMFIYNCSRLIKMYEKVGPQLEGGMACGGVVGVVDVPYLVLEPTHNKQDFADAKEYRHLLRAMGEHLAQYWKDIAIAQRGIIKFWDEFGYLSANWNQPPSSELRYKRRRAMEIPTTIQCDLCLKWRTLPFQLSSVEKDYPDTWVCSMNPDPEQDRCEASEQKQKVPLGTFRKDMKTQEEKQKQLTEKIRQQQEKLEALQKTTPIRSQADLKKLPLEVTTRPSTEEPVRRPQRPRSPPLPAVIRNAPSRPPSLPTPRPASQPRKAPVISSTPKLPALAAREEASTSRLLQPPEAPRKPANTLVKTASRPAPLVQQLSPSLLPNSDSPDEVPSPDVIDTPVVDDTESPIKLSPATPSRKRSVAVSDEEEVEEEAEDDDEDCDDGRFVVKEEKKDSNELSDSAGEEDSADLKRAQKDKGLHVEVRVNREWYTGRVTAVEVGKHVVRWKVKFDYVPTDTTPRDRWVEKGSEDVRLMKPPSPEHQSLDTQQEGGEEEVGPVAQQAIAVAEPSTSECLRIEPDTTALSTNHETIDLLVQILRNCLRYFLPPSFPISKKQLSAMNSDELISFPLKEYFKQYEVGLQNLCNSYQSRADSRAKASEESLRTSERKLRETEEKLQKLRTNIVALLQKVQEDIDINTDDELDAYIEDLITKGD
The series can be described thus: fluorescence anisotropy; apo; FA/EMSA: 50 mM NaCl, 3 mM MgCl2, 20 mM Na-HEPES pH 7.4, 1 mM TCEP, 10% glycerol, 0.025 mM ZnCl2, 50 ug/ml BSA, room temperature; 1 nM nucleic acid (FA) or 20 nM DNA (EMSA). To be noted: protein: recombinant; tags: tag removed by TEV; chain copies: 2; label: 5'-6-FAM; blunt.

Another series deals with T2, MORC2 alanine mutant (Homo sapiens, UniProt Q9Y6X9 1-1032, K704A;R707A;K713A;K716A;K721A;K722A;R754A;R755A;K756A;R758A;K760A;R761A).
T2 sequence: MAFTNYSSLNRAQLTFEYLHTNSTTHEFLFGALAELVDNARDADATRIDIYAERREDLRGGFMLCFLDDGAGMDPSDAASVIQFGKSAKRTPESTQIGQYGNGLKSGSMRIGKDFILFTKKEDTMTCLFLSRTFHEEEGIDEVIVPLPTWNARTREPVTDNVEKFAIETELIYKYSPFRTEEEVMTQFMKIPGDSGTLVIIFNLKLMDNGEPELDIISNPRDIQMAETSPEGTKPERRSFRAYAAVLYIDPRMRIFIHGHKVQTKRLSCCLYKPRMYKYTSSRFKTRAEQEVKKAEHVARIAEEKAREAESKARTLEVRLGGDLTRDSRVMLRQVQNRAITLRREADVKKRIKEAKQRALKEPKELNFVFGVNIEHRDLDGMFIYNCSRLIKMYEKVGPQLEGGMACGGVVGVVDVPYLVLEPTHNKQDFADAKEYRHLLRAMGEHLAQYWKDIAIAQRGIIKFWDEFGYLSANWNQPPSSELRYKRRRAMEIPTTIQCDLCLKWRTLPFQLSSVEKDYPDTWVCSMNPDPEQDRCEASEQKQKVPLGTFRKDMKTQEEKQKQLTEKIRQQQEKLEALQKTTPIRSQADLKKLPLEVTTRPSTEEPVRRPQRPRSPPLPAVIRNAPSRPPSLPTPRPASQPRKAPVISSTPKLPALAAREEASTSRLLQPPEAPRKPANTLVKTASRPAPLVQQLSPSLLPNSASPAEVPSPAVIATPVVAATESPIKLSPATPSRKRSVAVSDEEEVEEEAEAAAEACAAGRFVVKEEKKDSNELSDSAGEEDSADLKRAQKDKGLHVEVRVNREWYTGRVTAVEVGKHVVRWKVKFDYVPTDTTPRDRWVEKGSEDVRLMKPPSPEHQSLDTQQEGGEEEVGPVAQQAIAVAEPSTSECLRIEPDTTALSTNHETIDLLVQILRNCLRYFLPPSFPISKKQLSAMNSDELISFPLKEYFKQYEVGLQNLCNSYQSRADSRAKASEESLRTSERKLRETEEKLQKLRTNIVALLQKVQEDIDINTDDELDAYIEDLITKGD
The description is as above. As to conditions: protein: recombinant; tags: tag removed by TEV; chain copies: 2; label: 5'-6-FAM; blunt.

In general, Kd refers to the concentration at which binding is half-saturated.

B1: Random 35mer dsDNA (dsDNA)
DNA 1: ATAGGGTCCATCAGAATTCGGATGAACTCGGTGTG
DNA 2: CACACCGAGTTCATCCGAATTCTGATGGACCCTAT
Consider B1, for which the Kd in the series with MORC2 aspartate mutant is 380 ± 120 nM; with MORC2 alanine mutant, 350 ± 60 nM.
